Measured values published in patent publication US20250313632A1.
Values belong to the molecule of their own block, whether it stands above or below them.

Columns and labels:
[1] = target: human B7-H3 expressed on A375 tumor cells (human) (UniProt Q5ZPR3); assay: flow cytometry on A375 cells, MFI(PE); unit from the axis Conc (nM); fit value of a flat control curve
[2] = target: human B7-H3 expressed on A375 tumor cells (human) (UniProt Q5ZPR3); assay: as above; remark: listed apart in the source
[3] = target: human B7-H3 expressed on A375 tumor cells (human) (UniProt Q5ZPR3); assay: as above; remark: listed apart in the source
[4] = target: human B7-H3 expressed on A375 tumor cells (human) (UniProt Q5ZPR3); assay: flow cytometry on A375 cells, MFI(647); unit from the axis Conc (nM); fit value of a flat control curve
[5] = target: human B7-H3 expressed on A375 tumor cells (human) (UniProt Q5ZPR3); assay: flow cytometry on A375.S2 cells, MFI(647); unit from the axis Conc (nM); fit value of a flat control curve
[6] = target: human B7-H3 protein (human) (UniProt Q5ZPR3); assay: Octet (BLI) epitope binning on captured human B7-H3; competitor CA84D
[7] = target: human B7-H3 protein (human) (UniProt Q5ZPR3); assay: Octet (BLI) epitope binning on captured human B7-H3; competitor AHP05562
[8] = target: human B7-H3 expressed on A375 tumor cells (human) (UniProt Q5ZPR3); assay: flow cytometry on A375 cells, MFI(PE); unit from the axis Conc(nM)
[9] = target: human B7-H3 protein (human) (UniProt Q5ZPR3); assay: Octet (BLI) epitope binning on captured human B7-H3; competitor AHP06345 (self)
[10] = target: human B7-H3 (4Ig) protein (his tag) (human) (UniProt Q5ZPR3); assay: SPR (Biacore T200), antibody captured on Protein A chip, B7-H3 injected, 1:1 model

EC50 [1]: 36 nM
EC50 [2]: 2.1 nM
EC50 [3]: 192 nM
EC50 [4]: 0.066 nM
EC50 [5]: 0.044 nM
Molecule: hIgG1 (antibody)

inhibition ratio [6]: -3.77%
inhibition ratio [7]: -6.36%
EC50 [8]: 2.7 nM
inhibition ratio [9]: 91.8%
Kd [10]: 1.47 nM
koff [10]: 0.000254 s⁻¹
kon [10]: 173000 M⁻¹ s⁻¹
B1: AHP06345 (antibody, V domains shown)
VH: QVQLVQSGAEVKKPGESLRISCKGSGYSFTSYWISWVRQMPGKGLEWMGRIDPSDSYTNYSPSFQGHVTISADKSISTAYLQWSSLKASDTAMYYCARHTGYYGSGIGMDVWGQGTLVTVSS
VL: HVILTQPPSVSAAPGQKVTISCSGSSSNIGNNYVSWYRQLPGTAPKLLIYDNNQRPSGIPDRFSGSKSGTSATLGITGLQTGDEADYYCATWDSSLGVVVFGGRTKLTVL
